Results from publication PMC2739136.
Positions count from the first letter of the chain named.

How the values were obtained:
[1] = target: T1, MBP-TraR L5M, P33905; experiment: pull-down
T1 chain: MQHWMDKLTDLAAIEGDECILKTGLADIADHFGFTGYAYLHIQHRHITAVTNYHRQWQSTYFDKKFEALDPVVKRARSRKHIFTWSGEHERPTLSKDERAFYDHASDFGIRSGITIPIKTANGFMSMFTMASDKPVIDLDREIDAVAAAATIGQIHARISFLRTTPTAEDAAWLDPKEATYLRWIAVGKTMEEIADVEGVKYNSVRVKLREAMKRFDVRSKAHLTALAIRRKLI

[2] = target: T2, MBP-TraR A149V, P33905; experiment: pull-down
T2 chain: T1 chain with M5L, A149V

B1: native TraR (wild type) (protein)
chain: T1 chain with M5L
Q: With B1 as the protein, how does the heterodimer formation (% of wild type) (% of wild type) [1] read?
A: 99

Q: And the heterodimer formation (% of wild type) (% of wild type) [2]?
A: 19
